Measured values reported in US20140206607A1 (INDIANA UNIVERSITY RESEARCH AND TECHNOLOGY, published 2014).
Numbered stars: 1 amine (or outer) side, 2 acyl side, 3 side chain; on linkers, the order of the positions; unused ones are H or OH. Square brackets hold non-standard residues; d marks the D form. Primed or numbered codes have the meaning given here. Side chains are listed from the residue outwards. Ends that are not written are not given here. * marks the point of attachment. 40K‑TE PEG = 40 kDa PEG covalently bound via thioether, formed by reaction of the free thiol of the peptide (Cys side chain) with an iodoacetic-functionalized PEG; 20K‑TE PEG″ = 20 kDa PEG attached via a thioether, formed by reacting the free thiol of the peptide with an iodoacetic-functionalized PEG; 12K‑ME PEG = 12 kDa PEG bound via maleimido-thioether; γGlu = O=C(O)[C@H](CCC(=O)[*:2])N[*:1]; Palmitoyl = CCCCCCCCCCCCCCCC(=O)*; EC16 = not defined here; Aib = CC(C)(N)C(=O)O

B1: peptide of SEQ ID NO: 19 (peptide)
peptide: H[dS]QGTFTSDK([γGlu-EC16])SKYLDERAAQDFVQWLLDGRG-NH2
modifications: reading uncertain; also: printed as HsQGTFTSDK(gammaGlu-EC16)SKYLDERAAQDFVQWLLDGRG-amide
B2: peptide of SEQ ID NO: 59 (peptide)
peptide: H[Aib]QGTFTSDKSKYLDERRA[Aib]DFVQWLMNT-NH2
modifications: not fully specified (residue 10); printed as HaibQGTFTSDK(C16 acyl)SKYLDERRAaibDFVQWLMNT-amide
B3: peptide of SEQ ID NO: 56 (peptide)
peptide: H[dA]QGTFTSDK([γGlu-Palmitoyl])SKYLDERAAQDFVQWLLDT-NH2
modifications: N-terminus assumed
SMILES: CCCCCCCCCCCCCCCC(=O)N[C@@H](CCC(=O)NCCCC[C@H](NC(=O)[C@H](CC(=O)O)NC(=O)[C@H](CO)NC(=O)[C@@H](NC(=O)[C@H](Cc1ccccc1)NC(=O)[C@@H](NC(=O)CNC(=O)[C@H](CCC(N)=O)NC(=O)[C@@H](C)NC(=O)[C@@H](N)Cc1c[nH]cn1)[C@@H](C)O)[C@@H](C)O)C(=O)N[C@@H](CO)C(=O)N[C@@H](CCCCN)C(=O)N[C@@H](Cc1ccc(O)cc1)C(=O)N[C@@H](CC(C)C)C(=O)N[C@@H](CC(=O)O)C(=O)N[C@@H](CCC(=O)O)C(=O)N[C@@H](CCCNC(=N)N)C(=O)N[C@@H](C)C(=O)N[C@@H](C)C(=O)N[C@@H](CCC(N)=O)C(=O)N[C@@H](CC(=O)O)C(=O)N[C@@H](Cc1ccccc1)C(=O)N[C@H](C(=O)N[C@@H](CCC(N)=O)C(=O)N[C@@H](Cc1c[nH]c2ccccc12)C(=O)N[C@@H](CC(C)C)C(=O)N[C@@H](CC(C)C)C(=O)N[C@@H](CC(=O)O)C(=O)N[C@H](C(N)=O)[C@@H](C)O)C(C)C)C(=O)O
B4: peptide of SEQ ID NO: 58 (peptide)
peptide: H[Aib]QGTFTSDK(Palmitoyl)SKYLDSRRA[Aib]DFVQWLMNT-NH2
modifications: N-terminus assumed
SMILES: CCCCCCCCCCCCCCCC(=O)NCCCC[C@H](NC(=O)[C@H](CC(=O)O)NC(=O)[C@H](CO)NC(=O)[C@@H](NC(=O)[C@H](Cc1ccccc1)NC(=O)[C@@H](NC(=O)CNC(=O)[C@H](CCC(N)=O)NC(=O)C(C)(C)NC(=O)[C@@H](N)Cc1c[nH]cn1)[C@@H](C)O)[C@@H](C)O)C(=O)N[C@@H](CO)C(=O)N[C@@H](CCCCN)C(=O)N[C@@H](Cc1ccc(O)cc1)C(=O)N[C@@H](CC(C)C)C(=O)N[C@@H](CC(=O)O)C(=O)N[C@@H](CO)C(=O)N[C@@H](CCCNC(=N)N)C(=O)N[C@@H](CCCNC(=N)N)C(=O)N[C@@H](C)C(=O)NC(C)(C)C(=O)N[C@@H](CC(=O)O)C(=O)N[C@@H](Cc1ccccc1)C(=O)N[C@H](C(=O)N[C@@H](CCC(N)=O)C(=O)N[C@@H](Cc1c[nH]c2ccccc12)C(=O)N[C@@H](CC(C)C)C(=O)N[C@@H](CCSC)C(=O)N[C@@H](CC(N)=O)C(=O)N[C@H](C(N)=O)[C@@H](C)O)C(C)C

Experiments:
Test in all cases: cell-based or functional assay
GLP-1 receptor = GLP-1 receptor (UniProt P43220 24-463, limits assumed)
glucagon receptor = glucagon receptor (UniProt P47871 26-477, limits assumed)
Sequence of glucagon receptor (P47871 26-477 limits assumed): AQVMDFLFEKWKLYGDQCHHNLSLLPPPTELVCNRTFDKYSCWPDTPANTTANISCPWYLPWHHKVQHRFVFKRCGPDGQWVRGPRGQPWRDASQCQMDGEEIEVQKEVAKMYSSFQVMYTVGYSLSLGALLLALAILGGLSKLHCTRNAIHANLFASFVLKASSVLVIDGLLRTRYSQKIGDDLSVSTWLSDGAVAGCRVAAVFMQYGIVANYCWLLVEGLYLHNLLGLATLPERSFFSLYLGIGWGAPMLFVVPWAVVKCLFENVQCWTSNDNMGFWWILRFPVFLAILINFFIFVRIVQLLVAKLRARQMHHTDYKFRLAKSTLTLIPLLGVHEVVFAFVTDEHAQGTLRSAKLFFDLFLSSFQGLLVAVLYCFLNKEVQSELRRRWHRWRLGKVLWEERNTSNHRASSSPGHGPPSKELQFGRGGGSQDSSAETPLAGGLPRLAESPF

GIP receptor = target: T1, GIP receptor (UniProt P48546 22-466)
T1 sequence (looked up): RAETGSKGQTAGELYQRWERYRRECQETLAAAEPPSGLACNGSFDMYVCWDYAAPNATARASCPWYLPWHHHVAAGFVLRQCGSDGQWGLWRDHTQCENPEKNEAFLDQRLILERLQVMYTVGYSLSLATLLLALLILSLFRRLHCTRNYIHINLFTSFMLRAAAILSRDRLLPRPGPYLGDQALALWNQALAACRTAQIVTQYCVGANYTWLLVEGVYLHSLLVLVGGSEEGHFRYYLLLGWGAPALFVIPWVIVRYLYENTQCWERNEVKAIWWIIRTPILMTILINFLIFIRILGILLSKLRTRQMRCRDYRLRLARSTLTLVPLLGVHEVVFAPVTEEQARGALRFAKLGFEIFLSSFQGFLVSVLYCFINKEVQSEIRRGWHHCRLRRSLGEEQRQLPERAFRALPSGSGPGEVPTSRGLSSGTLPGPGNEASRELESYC

Binder	EC50 (nM) at GLP-1 receptor (GLP-1 receptor)	EC50 (nM) at glucagon receptor (glucagon receptor)	EC50 (nM) at GIP receptor (GIP receptor)
H[dS]QGTFTSDK(benzoylpropionyl)SKYLDERAAQDFVQWLLDGGPSSGAPPPS-NH2 [peptide of SEQ ID NO: 49]	0.01 nM	0.063 nM	
H[dS]QGTFTSDK(EDTA amide)SKYLDERAAQDFVQWLLDGGPSSGAPPPS-NH2 [peptide of SEQ ID NO: 55]	0.108 nM	4.34 nM	
H[Aib]QGTFTSDYSKYLD[Aib]KRA[Aib]EFVC(40K‑TE PEG)WLLDGGPSSGAPPPS-NH2 [peptide of SEQ ID NO: 46]	0.136 nM	0.227 nM	
H[Aib]QGTFTSDYSKYLDEKRA[Aib]EFVC(40K‑TE PEG)WLLDT-OH [peptide of SEQ ID NO: 45]	1.44 nM	0.651 nM	
H[Aib]QGTFTSDYSKYLDEKRA[Aib]EFVC(40K‑TE PEG)WLL[Aib]GGPSSGAPPPS-NH2 [peptide of SEQ ID NO: 51]	0.062 nM	2.04 nM	
H[Aib]QGTFTSDYSKYLDEKRA[Aib]DFVC(40K‑TE PEG)WLLDT-NH2 [peptide of SEQ ID NO: 54]	0.097 nM	0.939 nM	
HXQGTFTSDKSKYLDERAAQDFVQWLMDT (Aib at 2; Lys 10 acylated, printed K(γEyEC16); C-terminal amide) [peptide of SEQ ID NO: 61]	0.004 nM	0.009 nM	0.676 nM
H[Aib]QGTFTSDYSKYLDEKRA[Aib]EFV[Aib]WLLC(40K‑TE PEG)T-NH2 [peptide of SEQ ID NO: 42]	0.117 nM	1.01 nM	
H[Aib]QGTFTSDYSKYLDEKRA[Aib]EFVC(40K‑TE PEG)WLLDT-NH2 [peptide of SEQ ID NO: 13]	0.067 nM	0.141 nM	
H[Aib]QGTFTSDYSKYLDEKRA[Aib]EFVC(40K‑TE PEG)WLL[Aib]T-NH2 [peptide of SEQ ID NO: 41]	0.074 nM	0.309 nM	
B1	0.002 nM	0.004 nM	0.812 nM
H[Aib]QGTFTSDYSKYLDEKRA[Aib]EFVC(40K‑TE PEG)WLLDGGPSSGAPPPS-NH2 [peptide of SEQ ID NO: 47]	0.052 nM	0.591 nM	
B2	0.01 nM	0.051 nM	7.48 nM
H[dS]QGTFTSDK([γGlu-Palmitoyl])SKYLDEQAAKEFIC(12K‑ME PEG)WLLDT-NH2 [peptide of SEQ ID NO: 43]	0.011 nM	0.02 nM	
B3	0.02 nM	0.006 nM	1.64 nM
H[Aib]QGTFTSDYSKYLD[Aib]KRA[Aib]EFVC(40K‑TE PEG)WLLDT-NH2 [peptide of SEQ ID NO: 38]	0.31 nM	0.141 nM	
H[Aib]QGTFTSDK([γGlu-Palmitoyl])SKYLD[Aib]RAAQDFVQWLMKTK[dE]-OH [peptide of SEQ ID NO: 60]	0.033 nM	4.6 nM	147 nM
H[dS]QGTFTSDK([γGlu-Palmitoyl])SKYLDEQAAKEFIC(20K‑TE PEG″)WLLDT-NH2 [peptide of SEQ ID NO: 44]	0.017 nM	0.023 nM	
H[Aib]QGTFTSDYSKYLDEK[Aib]AKEFVC(40K‑TE PEG)WLLDT-NH2 [peptide of SEQ ID NO: 52]	0.054 nM	4.5 nM	
H[dS]QGTFTSDK([γGlu-adamantylacetyl])SKYLDERAAQDFVQWLLDT-NH2 [peptide of SEQ ID NO: 48]	0.039 nM	0.026 nM	
H[Aib]QGTFTSDYSKYLD[Aib]KRAKEFVQWLLC(40K‑TE PEG)T-OH [peptide of SEQ ID NO: 39]	1.28 nM	0.852 nM	
H[Aib]QGTFTSDYSKYLDEKRA[Aib]EFVC(40K‑TE PEG)WLLDE-NH2 [peptide of SEQ ID NO: 16]	0.487 nM	0.563 nM	465 nM
H[Aib]QGTFTSDYSKYLD[Aib]KRAKEFVQWLLDTC(40K‑TE PEG)-NH2 [peptide of SEQ ID NO: 40]	0.653 nM	1.19 nM	
B4	0.025 nM	0.09 nM	35.7 nM
